# Key:
# HeLa Kyoto [1] = assay: melting temperature (median over replicates), in situ; higher = more thermally stable
# HeLa Kyoto [2] = assay: solubility in G1/S (NP-40 vs SDS abundance) (log2 ratio); higher = more soluble; conditions: cell cycle stage: G1/S
# HeLa Kyoto [3] = assay: solubility change mitosis vs G1/S (difference of NP-40 vs SDS log2 ratios) (log2 ratio difference); higher = more soluble in mitosis
# HeLa Kyoto [4] = assay: thermal stability score vs G1/S (z-score of summed log2 fold changes over temperatures); higher = more thermally stable than in G1/S
# [5] = cell cycle stage: early G1 (4.5 h after nocodazole release)
# 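Wherever melting temperature (median over replicates), in situ is given: HeLa Kyoto cells synchronized by double thymidine or nocodazole block, proteins quantified by TMT10plex mass spectrometry, three independent biological replicates.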
# 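Wherever solubility change mitosis vs G1/S (difference of NP-40 vs SDS log2 ratios) is given: synchronized HeLa Kyoto cells (double thymidine block for G1/S, nocodazole release for mitosis), protein amounts in NP-40 versus SDS lysates quantified by mass spectrometry, three biological replicates.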
# 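Wherever solubility in G1/S (NP-40 vs SDS abundance) is given: HeLa Kyoto cells arrested at G1/S by double thymidine block, proteins quantified by TMT10plex mass spectrometry in mild NP-40 versus SDS extracts, three biological replicates.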
# 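Wherever thermal stability score vs G1/S (z-score of summed log2 fold changes over temperatures) is given: synchronized HeLa Kyoto cells, proteins quantified by TMT10plex mass spectrometry, three biological replicates, mitosis taken 0.5 h after nocodazole release, G1/S directly after double thymidine block.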
Sequence,melting temperature (HeLa Kyoto [1]; cell cycle stage: G1/S) [°C],melting temperature (HeLa Kyoto [1]; cell cycle stage: mitosis) [°C],solubility in G1/S (log2) (HeLa Kyoto [2]),solubility change mitosis (log2) (HeLa Kyoto [3]),thermal stability score (HeLa Kyoto [4]; [5]),thermal stability score (HeLa Kyoto [4]; cell cycle stage: mitosis)
MALRPGAGSGGGGAAGAGAGSAGGGGFMFPVAGGIRPPQAGLMPMQQQGFPMVSVMQPNMQGIMGMNYSSQMSQGPIAMQAGIPMGPMPAAGMPYLGQAPFLGMRPPGPQYTPDMQKQFAEEQQKRFEQQQKLLEEERKRRQFEEQKQKLRLLSSVKPKTGEKSRDDALEAIKGNLDGFSRDAKMHPTPASHPKKPGPSLEEKFLVSCDISTSGQEQIKLNTSEVGHKALGPGSSKKYPSLMASNGVAVDGCVSGTTTAEAENTSDQNLSIEESGVGVFPSQDPAQPRMPPWIYNESLVPDAYKKILETTMTPTGIDTAKLYPILMSSGLPRETLGQIWALANRTTPGKLTKEELYTVLAMIAVTQRGVPAMSPDALNQFPAAPIPTLSGFSMTLPTPVSQPTVIPSGPAGSMPLSLGQPVMGINLVGPVGGAAAQASSGFIPTYPANQVVKPEEDDFQDFQDASKSGSLDDSFSDFQELPASSKTSNSQHGNSAPSLLMPLPGTKALPSMDKYAVFKGIAADKSSENTVPPGDPGDKYSAFRELEQTAENKPLGESFAEFRSAGTDDGFTDFKTADSVSPLEPPTKDKTFPPSFPSGTIQQKQQTQVKNPLNLADLDMFSSVNCSSEKPLSFSAVFSTSKSVSTPQSTGSAATMTALAATKTSSLADDFGEFSLFGEYSGLAPVGEQDDFADFMAFSNSSISSEQKPDDKYDALKEEASPVPLTSNVGSTVKGGQNSTAASTKYDVFRQLSLEGSGLGVEDLKDNTPSGKSDDDFADFHSSKFSSINSDKSLGEKAVAFRHTKEDSASVKSLDLPSIGGSSVGKEDSEDALSVQFDMKLADVGGDLKHVMSDSSLDLPTVSGQHPPAADIEDLKYAAFGSYSSNFAVSTLTSYDWSDRDDATQGRKLSPFVLSAGSGSPSATSILQKKETSFGSSENITMTSLSKVTTFVSEDALPETTFPALASFKDTIPQTSEQKEYENRDYKDFTKQDLPTAERSQEATCPSPASSGASQETPNECSDDFGEFQSEKPKISKFDFLVATSQSKMKSSEEMIKSELATFDLSVQGSHKRSLSLGDKEISRSSPSPALEQPFRDRSNTLNEKPALPVIRDKYKDLTGEVEENERYAYEWQRCLGSALNVIKKANDTLNGISSSSVCTEVIQSAQGMEYLLGVVEVYRVTKRVELGIKATAVCSEKLQQLLKDIDKVWNNLIGFMSLATLTPDENSLDFSSCMLRPGIKNAQELACGVCLLNVDSRSRKEEKPAEEHPKKAFNSETDSFKLAYGGHQYHASCANFWINCVEPKPPGLVLPDLL [SYNRG],49.9,49.7,0.0486,-0.164,0.188,1.39
MALSDEPAAGGPEEEAEDETLAFGAALEAFGESAETRALLGRLREVHGGGAEREVALERFRVIMDKYQEQPHLLDPHLEWMMNLLLDIVQDQTSPASLVHLAFKFLYIITKVRGYKTFLRLFPHEVADVEPVLDLVTIQNPKDHEAWETRYMLLLWLSVTCLIPFDFSRLDGNLLTQPGQARMSIMDRILQIAESYLIVSDKARDAAAVLVSRFITRPDVKQSKMAEFLDWSLCNLARSSFQTMQGVITMDGTLQALAQIFKHGKREDCLPYAATVLRCLDGCRLPESNQTLLRKLGVKLVQRLGLTFLKPKVAAWRYQRGCRSLAANLQLLTQGQSEQKPLILTEDDDEDDDVPEGVERVIEQLLVGLKDKDTVVRWSAAKGIGRMAGRLPRALADDVVGSVLDCFSFQETDKAWHGGCLALAELGRRGLLLPSRLVDVVAVILKALTYDEKRGACSVGTNVRDAACYVCWAFARAYEPQELKPFVTAISSALVIAAVFDRDINCRRAASAAFQENVGRQGTFPHGIDILTTADYFAVGNRSNCFLVISVFIAGFPEYTQPMIDHLVTMKISHWDGVIRELAARALHNLAQQAPEFSATQVFPRLLSMTLSPDLHMRHGSILACAEVAYALYKLAAQENRPVTDHLDEQAVQGLKQIHQQLYDRQLYRGLGGQLMRQAVCVLIEKLSLSKMPFRGDTVIDGWQWLINDTLRHLHLISSHSRQQMKDAAVSALAALCSEYYMKEPGEADPAIQEELITQYLAELRNPEEMTRCGFSLALGALPGFLLKGRLQQVLTGLRAVTHTSPEDVSFAESRRDGLKAIARICQTVGVKAGAPDEAVCGENVSQIYCALLGCMDDYTTDSRGDVGTWVRKAAMTSLMDLTLLLARSQPELIEAHTCERIMCCVAQQASEKIDRFRAHAASVFLTLLHFDSPPIPHVPHRGELEKLFPRSDVASVNWSAPSQAFPRITQLLGLPTYRYHVLLGLVVSLGGLTESTIRHSTQSLFEYMKGIQSDPQALGSFSGTLLQIFEDNLLNERVSVPLLKTLDHVLTHGCFDIFTTEEDHPFAVKLLALCKKEIKNSKDIQKLLSGIAVFCEMVQFPGDVRRQALLQLCLLLCHRFPLIRKTTASQVYETLLTYSDVVGADVLDEVVTVLSDTAWDAELAVVREQRNRLCDLLGVPRPQLVPQPGAC [TBCD],50,50.2,-0.194,-0.154,-0.177,0.431
MALSKSMHARNRYKDKPPDFAYLASKYPDFKQHVQINLNGRVSLNFKDPEAVRALTCTLLREDFGLSIDIPLERLIPTVPLRLNYIHWVEDLIGHQDSDKSTLRRGIDIGTGASCIYPLLGATLNGWYFLATEVDDMCFNYAKKNVEQNNLSDLIKVVKVPQKTLLMDALKEESEIIYDFCMCNPPFFANQLEAKGVNSRNPRRPPPSSVNTGGITEIMAEGGELEFVKRIIHDSLQLKKRLRWYSCMLGKKCSLAPLKEELRIQGVPKVTYTEFCQGRTMRWALAWSFYDDVTVPSPPSKRRKLEKPRKPITFVVLASVMKELSLKASPLRSETAEGIVVVTTWIEKILTDLKVQHKRVPCGKEEVSLFLTAIENSWIHLRRKKRERVRQLREVPRAPEDVIQALEEKKPTPKESGNSQELARGPQERTPCGPALREGEAAAVEGPCPSQESLSQEENPEPTEDERSEEKGGVEVLESCQGSSNGAQDQEASEQFGSPVAERGKRLPGVAGQYLFKCLINVKKEVDDALVEMHWVEGQNRDLMNQLCTYIRNQIFRLVAVN [METTL16],50.2,50.8,0.161,-0.2,1.61,2.17
MALSRGLPRELAEAVAGGRVLVVGAGGIGCELLKNLVLTGFSHIDLIDLDTIDVSNLNRQFLFQKKHVGRSKAQVAKESVLQFYPKANIVAYHDSIMNPDYNVEFFRQFILVMNALDNRAARNHVNRMCLAADVPLIESGTAGYLGQVTTIKKGVTECYECHPKPTQRTFPGCTIRNTPSEPIHCIVWAKYLFNQLFGEEDADQEVSPDRADPEAAWEPTEAEARARASNEDGDIKRISTKEWAKSTGYDPVKLFTKLFKDDIRYLLTMDKLWRKRKPPVPLDWAEVQSQGEETNASDQQNEPQLGLKDQQVLDVKSYARLFSKSIETLRVHLAEKGDGAELIWDKDDPSAMDFVTSAANLRMHIFSMNMKSRFDIKSMAGNIIPAIATTNAVIAGLIVLEGLKILSGKIDQCRTIFLNKQPNPRKKLLVPCALDPPNPNCYVCASKPEVTVRLNVHKVTVLTLQDKIVKEKFAMVAPDVQIEDGKGTILISSEEGETEANNHKKLSEFGIRNGSRLQADDFLQDYTLLINILHSEDLGKDVEFEVVGDAPEKVGPKQAEDAAKSITNGSDDGAQPSTSTAQEQDDVLIVDSDEEDSSNNADVSEEERSRKRKLDEKENLSAKRSRIEQKEELDDVIALD [UBA2],52.2,52,0.146,-0.204,-0.2,0.883
MALTRPVRLFSLVTRLLLAPRRGLTVRSPDEPLPVVRIPVALQRQLEQRQSRRRNLPRPVLVRPGPLLVSARRPELNQPARLTLGRWERAPLASQGWKSRRARRDHFSIERAQQEAPAVRKLSSKGSFADLGLEPRVLHALQEAAPEVVQPTTVQSSTIPSLLRGRHVVCAAETGSGKTLSYLLPLLQRLLGQPSLDSLPIPAPRGLVLVPSRELAQQVRAVAQPLGRSLGLLVRDLEGGHGMRRIRLQLSRQPSADVLVATPGALWKALKSRLISLEQLSFLVLDEADTLLDESFLELVDYILEKSHIAEGPADLEDPFNPKAQLVLVGATFPEGVGQLLNKVASPDAVTTITSSKLHCIMPHVKQTFLRLKGADKVAELVHILKHRDRAERTGPSGTVLVFCNSSSTVNWLGYILDDHKIQHLRLQGQMPALMRVGIFQSFQKSSRDILLCTDIASRGLDSTGVELVVNYDFPPTLQDYIHRAGRVGRVGSEVPGTVISFVTHPWDVSLVQKIELAARRRRSLPGLASSVKEPLPQAT [DDX28],50,50.9,-0.336,0.0712,-0.0521,1.54
MAMAYLAWRLARRSCPSSLQVTSFPVVQLHMNRTAMRASQKDFENSMNQVKLLKKDPGNEVKLKLYALYKQATEGPCNMPKPGVFDLINKAKWDAWNALGSLPKEAARQNYVDLVSSLSPSLESSSQVEPGTDRKSTGFETLVVTSEDGITKIMFNRPKKKNAINTEMYHEIMRALKAASKDDSIITVLTGNGDYYSSGNDLTNFTDIPPGGVEEKAKNNAVLLREFVGCFIDFPKPLIAVVNGPAVGISVTLLGLFDAVYASDRATFHTPFSHLGQSPEGCSSYTFPKIMSPAKATEMLIFGKKLTAGEACAQGLVTEVFPDSTFQKEVWTRLKAFAKLPPNALRISKEVIRKREREKLHAVNAEECNVLQGRWLSDECTNAVVNFLSRKSKL [ECI2],53.6,53.2,0.369,-0.0636,-0.204,0.871
MAMDQVNALCEQLVKAVTVMMDPNSTQRYRLEALKFCEEFKEKCPICVPCGLRLAEKTQVAIVRHFGLQILEHVVKFRWNGMSRLEKVYLKNSVMELIANGTLNILEEENHIKDALSRIVVEMIKREWPQHWPDMLIELDTLSKQGETQTELVMFILLRLAEDVVTFQTLPPQRRRDIQQTLTQNMERIFSFLLNTLQENVNKYQQVKTDTSQESKAQANCRVGVAALNTLAGYIDWVSMSHITAENCKLLEILCLLLNEQELQLGAAECLLIAVSRKGKLEDRKPLMVLFGDVAMHYILSAAQTADGGGLVEKHYVFLKRLCQVLCALGNQLCALLGADSDVETPSNFGKYLESFLAFTTHPSQFLRSSTQMTWGALFRHEILSRDPLLLAIIPKYLRASMTNLVKMGFPSKTDSPSCEYSRFDFDSDEDFNAFFNSSRAQQGEVMRLACRLDPKTSFQMAGEWLKYQLSTFLDAGSVNSCSAVGTGEGSLCSVFSPSFVQWEAMTLFLESVITQMFRTLNREEIPVNDGIELLQMVLNFDTKDPLILSCVLTNVSALFPFVTYRPEFLPQVFSKLFSSVTFETVEESKAPRTRAVRNVRRHACSSIIKMCRDYPQLVLPNFDMLYNHVKQLLSNELLLTQMEKCALMEALVLISNQFKNYERQKVFLEELMAPVASIWLSQDMHRVLSDVDAFIAYVGTDQKSCDPGLEDPCGLNRARMSFCVYSILGVVKRTCWPTDLEEAKAGGFVVGYTSSGNPIFRNPCTEQILKLLDNLLALIRTHNTLYAPEMLAKMAEPFTKALDMLDAEKSAILGLPQPLLELNDSPVFKTVLERMQRFFSTLYENCFHILGKAGPSMQQDFYTVEDLATQLLSSAFVNLNNIPDYRLRPMLRVFVKPLVLFCPPEHYEALVSPILGPLFTYLHMRLSQKWQVINQRSLLCGEDEAADENPESQEMLEEQLVRMLTREVMDLITVCCVSKKGADHSSAPPADGDDEEMMATEVTPSAMAELTDLGKCLMKHEDVCTALLITAFNSLAWKDTLSCQRTTSQLCWPLLKQVLSGTLLADAVTWLFTSVLKGLQMHGQHDGCMASLVHLAFQIYEALRPRYLEIRAVMEQIPEIQKDSLDQFDCKLLNPSLQKVADKRRKDQFKRLIAGCIGKPLGEQFRKEVHIKNLPSLFKKTKPMLETEVLDNDGGGLATIFEP [XPO5],49,48.9,-0.158,-0.175,0.753,2.34
